From publication PMC11109279, “Heliorhodopsin-mediated light-modulation of ABC transporter” (Nature Communications, 2024)

Experiments:
OmrD (OmrD::his-tag) = target: T1, OmrD (OmrD::his-tag) (Omithinimicrobium cerasi strain USBA17B2, UniProt A0A285VW85 1-577); assay: ITC; OcHeR injected into the Omr protein; 25 °C, 500 rpm; buffer SD; MicroCal ITC200; one site binding model (sequential binding site model for R233Q); perfect saturation was not achieved; details: both partners purified
T1 construct: OmrD-His calculated as 62.86 kDa; also called pET21b-OmrD; source: E. coli C43 (DE3); purified (Ni2+-NTA agarose) for ITC; in DDM-solubilized membrane proteins for the His-tag pull-down
T1 sequence (looked up): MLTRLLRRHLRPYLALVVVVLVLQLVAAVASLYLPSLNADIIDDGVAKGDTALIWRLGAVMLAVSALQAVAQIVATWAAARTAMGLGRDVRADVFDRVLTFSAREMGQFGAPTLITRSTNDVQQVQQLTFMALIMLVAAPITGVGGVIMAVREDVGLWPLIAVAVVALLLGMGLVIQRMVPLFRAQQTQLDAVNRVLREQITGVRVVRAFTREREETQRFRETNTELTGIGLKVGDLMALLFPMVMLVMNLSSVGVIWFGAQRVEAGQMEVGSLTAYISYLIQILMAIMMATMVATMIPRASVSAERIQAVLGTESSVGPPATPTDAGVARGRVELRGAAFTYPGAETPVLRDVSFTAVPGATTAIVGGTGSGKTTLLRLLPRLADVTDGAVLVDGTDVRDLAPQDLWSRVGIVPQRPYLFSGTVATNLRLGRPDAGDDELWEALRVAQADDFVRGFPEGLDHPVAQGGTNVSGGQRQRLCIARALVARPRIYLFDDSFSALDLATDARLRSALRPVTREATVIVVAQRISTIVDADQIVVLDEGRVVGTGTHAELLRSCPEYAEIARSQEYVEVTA

[1] = target: T2, NBD-truncated OmrDE (OmrD^tcE^tc) (Omithinimicrobium cerasi strain USBA17B2); assay: ITC; replicate #2
T2 chain 1: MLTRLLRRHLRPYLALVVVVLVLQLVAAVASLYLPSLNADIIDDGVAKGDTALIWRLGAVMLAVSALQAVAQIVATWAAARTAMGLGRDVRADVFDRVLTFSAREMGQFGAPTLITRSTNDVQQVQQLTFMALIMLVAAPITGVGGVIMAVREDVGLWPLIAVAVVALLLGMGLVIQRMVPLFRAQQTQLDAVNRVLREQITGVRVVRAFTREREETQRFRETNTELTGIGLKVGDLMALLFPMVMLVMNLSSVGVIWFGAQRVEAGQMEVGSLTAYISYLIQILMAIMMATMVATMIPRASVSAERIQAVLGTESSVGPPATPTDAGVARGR
T2 chain 2: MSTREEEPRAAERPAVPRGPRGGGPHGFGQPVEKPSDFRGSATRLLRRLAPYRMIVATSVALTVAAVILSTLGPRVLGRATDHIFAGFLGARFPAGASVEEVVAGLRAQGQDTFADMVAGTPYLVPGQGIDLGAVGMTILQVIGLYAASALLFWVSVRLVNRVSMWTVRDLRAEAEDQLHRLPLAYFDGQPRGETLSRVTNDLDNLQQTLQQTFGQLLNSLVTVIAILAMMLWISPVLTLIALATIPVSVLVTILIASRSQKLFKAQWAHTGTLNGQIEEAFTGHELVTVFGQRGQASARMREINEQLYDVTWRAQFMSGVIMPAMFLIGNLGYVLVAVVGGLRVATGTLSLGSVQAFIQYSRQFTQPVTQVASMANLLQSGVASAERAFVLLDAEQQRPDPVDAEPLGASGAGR

[2] = target: T3, heterodimeric multidrug resistance ABC transporter OmrDE (Omithinimicrobium cerasi strain USBA17B2, UniProt A0A285VW85 1-577; A0A285VWG3 1-661); assay: ITC; replicate #2
T3 chain 1: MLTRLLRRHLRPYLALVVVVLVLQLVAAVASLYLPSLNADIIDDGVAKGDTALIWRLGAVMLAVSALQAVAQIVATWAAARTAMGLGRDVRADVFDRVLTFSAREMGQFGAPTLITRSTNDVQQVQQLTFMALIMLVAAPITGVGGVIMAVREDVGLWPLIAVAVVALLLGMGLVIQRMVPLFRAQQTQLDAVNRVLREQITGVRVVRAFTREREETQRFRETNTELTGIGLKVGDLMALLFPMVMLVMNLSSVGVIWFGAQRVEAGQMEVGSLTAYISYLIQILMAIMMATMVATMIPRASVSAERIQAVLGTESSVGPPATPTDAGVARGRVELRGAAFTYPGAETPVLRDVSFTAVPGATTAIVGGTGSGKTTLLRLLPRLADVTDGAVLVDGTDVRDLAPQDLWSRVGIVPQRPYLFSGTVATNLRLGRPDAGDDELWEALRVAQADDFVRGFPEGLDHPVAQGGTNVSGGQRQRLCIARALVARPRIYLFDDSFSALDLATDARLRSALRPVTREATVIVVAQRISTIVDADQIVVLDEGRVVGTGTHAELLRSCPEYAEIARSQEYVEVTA
T3 chain 2: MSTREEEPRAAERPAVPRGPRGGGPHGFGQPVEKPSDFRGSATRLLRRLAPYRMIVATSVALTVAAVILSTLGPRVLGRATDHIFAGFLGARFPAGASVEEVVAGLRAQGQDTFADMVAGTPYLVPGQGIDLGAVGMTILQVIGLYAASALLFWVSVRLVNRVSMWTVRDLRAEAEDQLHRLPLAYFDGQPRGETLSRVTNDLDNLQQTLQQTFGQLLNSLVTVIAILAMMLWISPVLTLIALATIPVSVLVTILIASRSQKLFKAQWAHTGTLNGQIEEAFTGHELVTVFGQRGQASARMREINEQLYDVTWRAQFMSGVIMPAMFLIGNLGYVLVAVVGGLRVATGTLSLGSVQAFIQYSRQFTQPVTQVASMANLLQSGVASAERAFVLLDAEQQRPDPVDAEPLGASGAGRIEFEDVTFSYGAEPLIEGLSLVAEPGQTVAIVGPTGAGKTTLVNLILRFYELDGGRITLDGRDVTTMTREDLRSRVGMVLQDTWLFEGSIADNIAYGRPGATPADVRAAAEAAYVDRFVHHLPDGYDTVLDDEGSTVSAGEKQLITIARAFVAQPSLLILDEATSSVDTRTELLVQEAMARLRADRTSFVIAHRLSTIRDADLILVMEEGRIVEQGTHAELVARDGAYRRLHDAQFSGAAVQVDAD

OmrE (OmrE-His) [3] = target: T4, OmrE (OmrE-His) (Omithinimicrobium cerasi strain USBA17B2, UniProt A0A285VWG3 1-661); assay: ITC; replicate #2
T4 chain: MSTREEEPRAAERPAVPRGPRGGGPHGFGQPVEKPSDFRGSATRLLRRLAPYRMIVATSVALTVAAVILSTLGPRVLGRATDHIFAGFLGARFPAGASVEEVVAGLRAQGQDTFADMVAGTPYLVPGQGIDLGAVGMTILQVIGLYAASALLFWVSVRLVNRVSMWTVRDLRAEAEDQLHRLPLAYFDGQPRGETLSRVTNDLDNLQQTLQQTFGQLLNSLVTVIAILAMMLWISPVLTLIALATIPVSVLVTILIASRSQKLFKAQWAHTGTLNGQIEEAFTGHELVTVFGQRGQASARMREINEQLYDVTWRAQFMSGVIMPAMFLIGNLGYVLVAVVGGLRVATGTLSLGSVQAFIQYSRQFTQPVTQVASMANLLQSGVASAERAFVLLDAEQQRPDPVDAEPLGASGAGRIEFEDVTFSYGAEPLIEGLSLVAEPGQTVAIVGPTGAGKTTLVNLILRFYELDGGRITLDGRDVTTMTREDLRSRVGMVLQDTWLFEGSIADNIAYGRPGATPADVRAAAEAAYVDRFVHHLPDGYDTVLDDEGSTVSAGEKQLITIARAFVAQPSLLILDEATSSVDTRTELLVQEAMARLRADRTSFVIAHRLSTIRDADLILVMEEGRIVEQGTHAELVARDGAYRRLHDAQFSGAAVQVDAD

[4] = target: T2, NBD-truncated OmrDE (OmrD^tcE^tc); assay: ITC; replicate #3
OmrE (OmrE-His) [5] = target: T4, OmrE (OmrE-His); assay: ITC; replicate #3

B1: Omithinimicrobium cerasi strain USBA17B2 heliorhodopsin (OcHeR) WT (natural protein, UniProt A0A285W045 1-266, looked up)
chain: MGSTGTGSTASTTRADESRYAGLRRYNVVAAVVHAAQAVAVVVLATDFTLPMTASYLAGPPGSPPGEAVTLWDVPIPLAIATFLALSALFHVIVASPPFFDRYRRGLAQGHNYFRWVEYSLSSSLMIVIIAQLVGISDVVALLGLFGVNASMILFGWLQEKYHQPGDGGWLPFVFGCLAGAVPWVGIVLYTIAPGSTSGAEPPGFVYGIIVSLFLFFNVFALVQWLQYRPVGRFRDYLLGERLYITLSLVAKSALAWQIFGGTLAT
modifications: retinal Schiff base linked to K252
notes: gene codon-optimized for E. coli and chemically synthesized; source: E. coli C43 (DE3), purified (DDM-solubilized membrane fraction, Ni2+-NTA agarose)
OmrD (OmrD::his-tag)
  Kd: 123 µM
[1]
  Kd: 29 µM
[2]
  Kd: 122 µM
OmrE (OmrE-His) [3]
  Kd: 24 µM
[4]
  Kd: 46 µM
OmrE (OmrE-His) [5]
  Kd: 46 µM
